Test results from patent US20110086026A1 (ROCHE PALO ALTO, published 2011).

Tests used:
[1] = target: Cynomolgus IL-13Rα1 expressed in transfected Ba/F3 cells (Cynomolgus); assay: FACS, transfected against parental Ba/F3 cells; secondary reagent only
[2] = target: Cynomolgus IL-13Rα1 expressed in transfected Ba/F3 cells (Cynomolgus); assay: FACS on Ba/F3 cells transfected with Cynomolgus IL-13Rα1; secondary reagent only
[3] = target: Cynomolgus IL-13Rα1 expressed in transfected Ba/F3 cells (Cynomolgus); assay: FACS, transfected against parental Ba/F3 cells; negative control
[4] = target: Cynomolgus IL-13Rα1 expressed in transfected Ba/F3 cells (Cynomolgus); assay: FACS on Ba/F3 cells transfected with Cynomolgus IL-13Rα1; negative control
human IL-13Rα1 [5] = target: T1, human IL-13Rα1 (human, UniProt P78552 22-427); assay: cell-based or functional assay
T1 sequence (looked up): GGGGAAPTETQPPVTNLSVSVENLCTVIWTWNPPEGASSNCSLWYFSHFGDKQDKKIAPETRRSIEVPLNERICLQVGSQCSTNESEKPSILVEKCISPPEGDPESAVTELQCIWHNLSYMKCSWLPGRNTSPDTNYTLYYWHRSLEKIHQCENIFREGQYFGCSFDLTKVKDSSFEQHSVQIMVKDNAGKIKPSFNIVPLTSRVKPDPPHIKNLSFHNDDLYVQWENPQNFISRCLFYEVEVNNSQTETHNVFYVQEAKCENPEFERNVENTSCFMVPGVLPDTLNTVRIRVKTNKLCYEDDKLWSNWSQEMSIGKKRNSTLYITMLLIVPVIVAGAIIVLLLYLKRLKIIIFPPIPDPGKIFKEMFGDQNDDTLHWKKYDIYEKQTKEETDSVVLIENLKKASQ

[6] = target: Cynomolgus IL-13Rα1 expressed in transfected Ba/F3 cells (Cynomolgus); assay: FACS, transfected against parental Ba/F3 cells, 10 µg/ml
[7] = target: Cynomolgus IL-13Rα1 expressed in transfected Ba/F3 cells (Cynomolgus); assay: FACS on Ba/F3 cells transfected with Cynomolgus IL-13Rα1, 10 µg/ml
human IL-13Rα1 [8] = target: T1, human IL-13Rα1; assay: displacement of 125I-IL-13 on CHO cells expressing human IL-13Rα1 and IL-4Rα
[9] = target: Chimeric protein murine IL-13Rα1:hFc (R&D Systems, UK) (mouse) (UniProt O09030); assay: ELISA, immobilized murine IL-13Rα1:hFc, detection with anti-goat IgG-POD, OD 405nm
[10] = target: extracellular domain of IL-13Rα1 (R&D Systems, UK) (human) (UniProt P78552); assay: ELISA, immobilized extracellular domain of human IL-13Rα1, detection with anti-goat IgG-POD, OD 405nm-492nm
[11] = target: T2, extracellular domain of hIL-13Rα1 cleaved from hIL-13Rα1:hFc chimeric protein (human, UniProt P78552 22-343); assay: SPR Biacore 3000, C1 chip, HuMab captured by anti-hFcγ, cleaved hIL-13Rα1 as analyte, 1:1 Langmuir model
T2 construct: extracellular domain; also called Cleaved hIL-13Rα1 molecules (MW 40 kDa)
T2 sequence (looked up): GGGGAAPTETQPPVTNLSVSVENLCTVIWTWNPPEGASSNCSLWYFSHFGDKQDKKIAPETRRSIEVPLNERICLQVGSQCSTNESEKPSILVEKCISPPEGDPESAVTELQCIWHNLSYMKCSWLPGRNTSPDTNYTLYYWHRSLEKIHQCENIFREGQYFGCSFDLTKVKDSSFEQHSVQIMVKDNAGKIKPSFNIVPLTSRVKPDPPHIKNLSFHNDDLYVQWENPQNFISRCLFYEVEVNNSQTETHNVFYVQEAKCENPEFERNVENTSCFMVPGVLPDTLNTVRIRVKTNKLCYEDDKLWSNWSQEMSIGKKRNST
Protocol: For interaction analysis, a Biacore 3000 instrument was used. Running and reaction buffer was HBS-P (10 mM HEPES, 150 mM NaCl, 0.005% polysurfactant P, pH 7.4) at 25° C. Capturing antibody molecules (anti-hFcγ) were amine-coupled at a concentration of 100 μg/ml at a flow rate of 5 μl/min for 20 minutes. HuMabs were injected at concentrations of 10 μg/ml at a flow rate of 10 μl/min for 30 seconds. Cleaved hIL-13Rα1 molecules (MW 40 kDa) were injected for 200 seconds at seven concentrations between 1.56 nM and 100 nM and washed with HBS-P for five minutes. Regeneration of the surface was accomplished by two injections of 100 mM HCl for 1 min each at a flow rate of […]. The chip, assay format and sequence of injections and kinetic data correspond to the description in the following Table 3. Kinetic data were calculated by fitting kinetic data to a 1:1 Langmuir binding model.

[12] = target: T2, extracellular domain of hIL-13Rα1 …; assay: SPR Biacore 3000, CM5 chip, HuMab captured by anti-hFcγ, cleaved hIL-13Rα1 as analyte, bivalent analyte model
Protocol: (§1) In these experiments, the affinity of the original IgG1 derived from hybridoma was compared with the affinities of the recombinant variant IgG1-Ala-Ala. For interaction analysis, a Biacore 3000 instrument was used. Running and reaction buffer was HBS-P (10 mM HEPES, 150 mM NaCl, 0.005% polysurfactant P, pH 7.4) at 25° C. Capturing antibody molecules (anti-hFcγ) were amine-coupled at a concentration of 20 μg/ml at a flow rate of 5 μl/min for 20 minutes. HuMabs were injected at concentrations of 10 μg/ml at a flow rate of 10 μl/min for 1 minute. Cleaved hIL-13 Rα1 molelcules (analyte) were injected for five minutes at eight concentrations between 1.56 nM and 200 nM and washed with HBS-P for five minutes. Regeneration of the surface was accomplished by two injections of 100 mM HCl for 1 min each. The chip, assay format and sequence of injections and kinetic data correspond to the description in Table 4. Kinetic data were calculated by fitting kinetic data to a bivalent analyte binding model.

[13] = target: T2, extracellular domain of hIL-13Rα1 …; assay: SPR Biacore 3000, CM5 chip, HuMab captured by anti-hFcγ, cleaved hIL-13Rα1 as analyte, bivalent analyte model (ka1)
Protocol: as §1

[14] = target: T2, extracellular domain of hIL-13Rα1 …; assay: SPR Biacore 3000, CM5 chip, HuMab captured by anti-hFcγ, cleaved hIL-13Rα1 as analyte, bivalent analyte model (kd1)
Protocol: as §1

Sequence of Chimeric protein murine IL-13Rα1:hFc (R&D Systems, UK) (mouse) (O09030 26-340, change not shown): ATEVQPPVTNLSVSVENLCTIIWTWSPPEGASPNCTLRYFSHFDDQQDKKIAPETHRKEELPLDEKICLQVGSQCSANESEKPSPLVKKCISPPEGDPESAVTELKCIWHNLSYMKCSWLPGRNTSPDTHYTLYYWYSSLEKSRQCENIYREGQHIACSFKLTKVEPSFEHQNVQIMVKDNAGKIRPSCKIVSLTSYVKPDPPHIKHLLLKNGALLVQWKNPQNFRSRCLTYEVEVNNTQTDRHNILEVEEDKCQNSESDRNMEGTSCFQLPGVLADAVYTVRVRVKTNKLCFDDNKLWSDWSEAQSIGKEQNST

Molecule: Anti human IgG-FITC only (antibody)
- Fold Increase in MFI in the presence of Cyno IL-13Rα1 [1]: 2.2
- MFI Ba/F3 Cyno IL-13Rα1 [2]: 5.5 MFI

Molecule: Normal goat IgG (antibody)
- Fold Increase in MFI in the presence of Cyno IL-13Rα1 [3]: 2.4
- MFI Ba/F3 Cyno IL-13Rα1 [4]: 5.7 MFI

Molecule: Normal human IgG1 (Nordic) (antibody)
- Fold Increase in MFI in the presence of Cyno IL-13Rα1 [3]: 6.7
- MFI Ba/F3 Cyno IL-13Rα1 [4]: 10.2 MFI

Molecule: polyclonal goat anti-hIL-13Rα1 antibody AF152 (R&D Systems)
- IC50, IL-13-induced Stat-6 phosphorylation in BSMC (human IL-13Rα1 [5]): 18.6 nM
- IC50, TF-1 proliferation in response to IL-13 (human IL-13Rα1 [5]): 13.5 nM
- IC50 for IL-4-induced TF-1 proliferation (human IL-13Rα1 [5]): 74.4 nM
- IC50 for inhibiting of CD23 upregulation on B-lymphocytes (IL-13 induced) (human IL-13Rα1 [5]): 13.6 nM
- IC50 for inhibition of IL-13 induced CD23 upregulation on human monocytes (human IL-13Rα1 [5]): 62.9 nM
- average IC50, eotaxin release of HFL-1 cells in response to IL-13 (human IL-13Rα1 [5]): 11.5 nM
- Fold Increase in MFI in the presence of Cyno IL-13Rα1 [6]: 18
- MFI Ba/F3 Cyno IL-13Rα1 [7]: 21.2 MFI
- IC50 (human IL-13Rα1 [8]): 84.8 nM
- EC50 (read off the curve) [9]: 0.2 nM
- EC50 (read off the curve) [10]: 0.6 nM

B1: LC5002-005, mutant L234A; L235A (antibody, V domains shown)
VH: EVQVLDSGGGLVQPGGSLRLSCTASGFTFRLYTMSWVRQTPGRGLEWVSGISGSGLSTYFADSVKGRFTISRDNSKNTVYLQMNSLRAEDTAVYYCAKEGDWIYFDSWGQGTLVIVSS
VL: DIQMTQSPSSLSASVGDRVTITCRASQGISSWLAWYQQKPEKAPKSLIYAASSLQSGVPSRFSGSGSGTDFTLTISSLQPEDFATYYCQQYNSHPPTFGQGTKLEIKR
notes: Recombinant IgG1 variant; also called IgG1 ala-ala LC5002-005; recombinant variant IgG1-Ala-Ala
- Kd [11]: 0.21 nM
- koff [11]: 0.00029 s⁻¹
- kon [11]: 1.4e+06 M⁻¹ s⁻¹
- Kd [12]: 2.8 nM
- kon [13]: 153000 M⁻¹ s⁻¹
- koff [14]: 0.00042 s⁻¹
